Laboratory results from paper PMC7532178, “Interaction of protocadherin-15 with the scaffold protein whirlin supports its anchoring of hair-bundle lateral links in cochlear hair cells” (Scientific Reports, 2020).
No end group written: not given here. *: point of attachment. Biotin = O=C1N[C@H]2[C@H](CS[C@H]2CCCCC(=O)*)N1; TTDS = trioxatridecan-succinamic acid spacer

Assays:
Settings in all cases: both partners purified
[1] = biological target: T1, harmonin-NTD-PDZ1 (aa 1-192) (UniProt Q9ES64 1-192); experiment: SPR; harmonin fragments or full-length harmonin-a1 with C-terminal peptides; Fig. S10 and data not shown
T1 construct: extra 7 aa at the N-terminus of all recombinant proteins of the study; harmonin, residues 1-192 (NTD and PDZ1), numbers on GenBank AF228925.1; also called NTD-PDZ1-Hp domain of harmonin; source: E. coli BL21 (DE3) codonPlus-RIPL, purified (Glutathione Sepharose 4B, GST removed by TEV proteinase, SEC)
T1 sequence: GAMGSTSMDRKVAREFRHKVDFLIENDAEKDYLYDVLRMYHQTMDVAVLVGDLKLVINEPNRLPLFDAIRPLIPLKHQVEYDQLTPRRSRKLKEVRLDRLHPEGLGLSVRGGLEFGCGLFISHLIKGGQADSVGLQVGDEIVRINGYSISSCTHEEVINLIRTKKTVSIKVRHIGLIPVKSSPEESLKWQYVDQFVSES

[2] = biological target: T2, harmonin-PDZ2 (aa residues 197-308) (UniProt Q9ES64 197-308); experiment: as above
T2 construct: extra 7 aa at the N-terminus of all recombinant proteins of the study; harmonin, residues 197-308 (PDZ2), numbers on GenBank AF228925.1; also called PDZ2 domain of harmonin; source: E. coli BL21 (DE3) codonPlus-RIPL, purified (Glutathione Sepharose 4B, GST removed by TEV proteinase, SEC)
T2 sequence: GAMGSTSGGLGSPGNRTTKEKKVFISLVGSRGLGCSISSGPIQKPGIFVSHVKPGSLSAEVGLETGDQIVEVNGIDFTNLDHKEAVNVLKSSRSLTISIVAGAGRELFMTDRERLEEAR

[3] = biological target: T3, whirlin-NTR-PDZ1-Hp1 (aa residues 2-265) (mouse, UniProt Q80VW5-1 2-265); experiment: SPR; ProteOn XPR 36; N-terminally biotinylated peptides captured on a Neutravidin NLC sensor chip, whirlin fragments flowed as analytes at 20 μL/min for 2 min; 250 mM NaCl, 50 mM Tris pH 7.5, 0.5 mM TCEP; steady-state fit Req = (Rmax*C)/(Kd+C); mean of three experiments; Figure 4B shows the responses at 10 μM
T3 construct: extra 7 aa at the N-terminus of all recombinant proteins of the study; whirlin (long isoform, L-whirlin), residues 2-265: NTR (with HHD1), PDZ1 and hairpin Hp1; The methods call the 2-265 construct whirlin-NTR-PDZ1; also called NTR-PDZ1-Hp1 whirlin fragment; Nter-PDZ1-Hp1; source: E. coli BL21 (DE3) codonPlus-RIPL, purified (Glutathione Sepharose 4B, GST removed by TEV proteinase, SEC)
T3 sequence: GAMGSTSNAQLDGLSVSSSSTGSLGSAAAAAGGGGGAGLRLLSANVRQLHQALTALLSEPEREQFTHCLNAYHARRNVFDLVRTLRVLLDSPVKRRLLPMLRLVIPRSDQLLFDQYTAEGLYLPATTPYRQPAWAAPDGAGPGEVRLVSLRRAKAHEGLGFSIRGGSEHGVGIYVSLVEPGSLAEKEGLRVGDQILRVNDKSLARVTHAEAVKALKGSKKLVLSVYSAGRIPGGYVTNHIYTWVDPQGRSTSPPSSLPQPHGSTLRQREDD

[4] = biological target: T4, whirlin PDZ1-Hp (aa residues 137-246) (mouse, UniProt Q80VW5-1 137-246); experiment: as above
T4 construct: extra 7 aa at the N-terminus of all recombinant proteins of the study; whirlin, residues 137-246: PDZ1 with its hairpin extension Hp1; also called PDZ1 + Hp1; whirlin PDZ1-Hp1 fragment
T4 sequence: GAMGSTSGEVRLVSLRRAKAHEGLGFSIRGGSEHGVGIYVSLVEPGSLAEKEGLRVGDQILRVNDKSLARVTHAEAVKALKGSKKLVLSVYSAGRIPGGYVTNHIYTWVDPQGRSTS

[5] = biological target: T5, whirlin-PDZ1 (aa residues 137-228) (mouse, UniProt Q80VW5-1 137-228); experiment: as above
T5 construct: extra 7 aa at the N-terminus of all recombinant proteins of the study; whirlin, residues 137-228: PDZ1 domain; also called whirlin PDZ1 domain alone; source: E. coli BL21 (DE3) codonPlus-RIPL, purified (Glutathione Sepharose 4B, GST removed by TEV proteinase, SEC)
T5 sequence: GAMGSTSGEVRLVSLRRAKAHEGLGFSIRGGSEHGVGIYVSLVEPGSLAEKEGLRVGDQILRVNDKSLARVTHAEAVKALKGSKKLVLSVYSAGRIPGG

[6] = biological target: T6, whirlin-HHD1 (aa residues 30-121) (mouse, UniProt Q80VW5-1 30-121); experiment: as above
T6 construct: extra 7 aa at the N-terminus of all recombinant proteins of the study; whirlin, residues 30-121: harmonin-homology domain 1 (HHD1); also called HHD1 domain alone; source: E. coli BL21 (DE3) codonPlus-RIPL, purified (Glutathione Sepharose 4B, GST removed by TEV proteinase, SEC)
T6 sequence: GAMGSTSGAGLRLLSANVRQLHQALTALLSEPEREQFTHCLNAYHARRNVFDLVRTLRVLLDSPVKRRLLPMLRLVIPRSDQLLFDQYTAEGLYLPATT

Binder	Kd [1] [µM]	Kd [2] [µM]	Kd [3] [µM]	Kd [4] [µM]	Kd [5] [µM]	Kd [6] [µM]
{Biotin-TTDS}-GIDVQPHSQSTSL (C-terminal 13 aa of protocadherin-15 isoform CD1, including the PBM; source: synthetic peptide (Eurogentec); not shown: biotin, N-terminal, kept) [PCDH15-CD1 C-terminal peptide (biotin-TTDS-GIDVQPHSQSTSL)]	> 200	> 200	8.8	29	106	> 1000
{Biotin-TTDS}-GANSEQYNTAL (C-terminal 11 aa of protocadherin-15 isoform CD2, including the PBM; source: synthetic peptide (Eurogentec); not shown: biotin, N-terminal, kept) [PCDH15-CD2 C-terminal peptide (biotin-TTDS-GANSEQYNTAL)]	> 200	> 200	8.5	33	147	> 1000
{Biotin-TTDS}-MGPWNSLHIPMTKL (C-terminal 14 aa of protocadherin-15 isoform CD3, including the PBM; source: synthetic peptide (Eurogentec); not shown: biotin, N-terminal, kept) [PCDH15-CD3 C-terminal peptide (biotin-TTDS-MGPWNSLHIPMTKL)]	> 200	> 200	4.2	11	34	> 1000
